Measurements reported in patent publication US8394771.

Target: ICAM-1 on HeLa cells (human) (UniProt P05362)
Experiment: cell-based or functional assay

EC50, protection of HeLa cells from HRV15 infection: > 10 nM
Substance: bivalent anti-ICAM-1 monoclonal antibody RR/1 (Chemicon)
